Source: article PMC3489907, “The Human Homolog of Escherichia coli Endonuclease V Is a Nucleolar Protein with Affinity for Branched DNA Structures”

Target: T1, ENDOV WT (human endonuclease V, exon 10 isoform) (Homo sapiens, UniProt Q8N8Q3 1-282)
T1 sequence: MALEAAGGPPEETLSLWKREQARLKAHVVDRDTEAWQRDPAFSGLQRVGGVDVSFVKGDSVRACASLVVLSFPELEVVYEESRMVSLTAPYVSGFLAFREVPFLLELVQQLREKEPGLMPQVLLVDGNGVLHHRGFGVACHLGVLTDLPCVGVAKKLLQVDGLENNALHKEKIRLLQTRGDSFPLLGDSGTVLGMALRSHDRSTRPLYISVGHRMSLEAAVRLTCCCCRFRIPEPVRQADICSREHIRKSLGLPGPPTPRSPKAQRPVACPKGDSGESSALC
Assay: EMSA; 5 mM Ca2+; EMSA: 10 fmol DNA in 10 µl, 5 ng pQE31 competitor DNA, 5 mM CaCl2, 10 mM HEPES-KOH pH 7.4, 1 mM DTT, 20% glycerol, 4°C 15 min; 10% native PAGE with 5 mM CaCl2 on ice; ENDOV 1.6-6.4 pmol, E. coli endoV 2-8 pmol
Details: protein: recombinant, tags: none (His6-MBP removed with TEV)

B1: Holliday junction (16+17*+18+19) (structured_DNA)
DNA 1: CCGCTACCAGTGATCACCAATGGATTGCTAGGACATCTTTGCCCACCTGCAGGTTCACCC
DNA 2: TGGGTGAACCTGCAGGTGGGCAAAGATGTCCTAGCAATCCATTGTCTATGACGTCAAGCT
DNA 3: GAGCTTGACGTCATAGACAATGGATTGCTAGGACATCTTTGCCGTCTTGTCAATATCGGC
DNA 4: TGCCGATATTGACAAGACGGCAAAGATGTCCTAGCAATCCATTGGTGATCACTGGTAGCGG
- binding result (label: 5'-32P on strand 2, four-way junction 1:2 2:3 3:4 4:1): binds

B2: 5'-flap (10+12+13*) (structured_DNA)
DNA 1: GGATACGTAACAACGCTTATGCATCGCCGCCGCTACATCCCTGAGCTGAC
DNA 2: GTCAGCTCAGGGATGTAGCGGCGG
DNA 3: TGTGTTCGATCTCGATCAGAATGACGATGCATAAGCGTTGTTACGTATCC
- binding result (label: 5'-32P on strand 3, 5'-flap, 1:2 1:3, 5' part of strand 3 unpaired (24 nt)): binds

B3: 3-way junction (10*+13+14) (structured_DNA)
DNA 1: GGATACGTAACAACGCTTATGCATCGCCGCCGCTACATCCCTGAGCTGAC
DNA 2: TGTGTTCGATCTCGATCAGAATGACGATGCATAAGCGTTGTTACGTATCC
DNA 3: GTCAGCTCAGGGATGTAGCGGCGGAGTCATTCTGATCGAGATCGAACACA
- binding result (label: 5'-32P on strand 1, three-way junction 1:2 1:3 2:3): binds

B4: 3'-flap (10+11+14*) (structured_DNA)
DNA 1: GGATACGTAACAACGCTTATGCATCGCCGCCGCTACATCCCTGAGCTGAC
DNA 2: ATGCATAAGCGTTGTTACGTATCC
DNA 3: GTCAGCTCAGGGATGTAGCGGCGGAGTCATTCTGATCGAGATCGAACACA
- binding result (label: 5'-32P on strand 3, 3'-flap, 1:2 1:3, 3' part of strand 3 unpaired): binds

B5: fork (10+11+14*+15) (structured_DNA)
DNA 1: GGATACGTAACAACGCTTATGCATCGCCGCCGCTACATCCCTGAGCTGAC
DNA 2: ATGCATAAGCGTTGTTACGTATCC
DNA 3: GTCAGCTCAGGGATGTAGCGGCGGAGTCATTCTGATCGAGATCGAACACA
DNA 4: TGTGTTCGATCTCGATCAGAATGA
- binding result (label: 5'-32P on strand 3, fork 1:2 1:3 3:4): binds

B6: pseudo-Y (10*+13) (structured_DNA)
DNA 1: GGATACGTAACAACGCTTATGCATCGCCGCCGCTACATCCCTGAGCTGAC
DNA 2: TGTGTTCGATCTCGATCAGAATGACGATGCATAAGCGTTGTTACGTATCC
- binding result (label: 5'-32P on strand 1, splayed duplex 1:2, 3' part of strand 1 and 5' part of strand 2 unpaired (24 nt each)): binds
